Measurements: PMC2743687 (Nature structural & molecular biology, 2009)

Molecular target: full-length Brr2, purified, Protein A tag cleaved off (S. cerevisiae, UniProt P32639 1-2163)
Experiment: native gel or EMSA

full-length Brr2, purified, Protein A tag cleaved off, sequence (P32639 whole entry): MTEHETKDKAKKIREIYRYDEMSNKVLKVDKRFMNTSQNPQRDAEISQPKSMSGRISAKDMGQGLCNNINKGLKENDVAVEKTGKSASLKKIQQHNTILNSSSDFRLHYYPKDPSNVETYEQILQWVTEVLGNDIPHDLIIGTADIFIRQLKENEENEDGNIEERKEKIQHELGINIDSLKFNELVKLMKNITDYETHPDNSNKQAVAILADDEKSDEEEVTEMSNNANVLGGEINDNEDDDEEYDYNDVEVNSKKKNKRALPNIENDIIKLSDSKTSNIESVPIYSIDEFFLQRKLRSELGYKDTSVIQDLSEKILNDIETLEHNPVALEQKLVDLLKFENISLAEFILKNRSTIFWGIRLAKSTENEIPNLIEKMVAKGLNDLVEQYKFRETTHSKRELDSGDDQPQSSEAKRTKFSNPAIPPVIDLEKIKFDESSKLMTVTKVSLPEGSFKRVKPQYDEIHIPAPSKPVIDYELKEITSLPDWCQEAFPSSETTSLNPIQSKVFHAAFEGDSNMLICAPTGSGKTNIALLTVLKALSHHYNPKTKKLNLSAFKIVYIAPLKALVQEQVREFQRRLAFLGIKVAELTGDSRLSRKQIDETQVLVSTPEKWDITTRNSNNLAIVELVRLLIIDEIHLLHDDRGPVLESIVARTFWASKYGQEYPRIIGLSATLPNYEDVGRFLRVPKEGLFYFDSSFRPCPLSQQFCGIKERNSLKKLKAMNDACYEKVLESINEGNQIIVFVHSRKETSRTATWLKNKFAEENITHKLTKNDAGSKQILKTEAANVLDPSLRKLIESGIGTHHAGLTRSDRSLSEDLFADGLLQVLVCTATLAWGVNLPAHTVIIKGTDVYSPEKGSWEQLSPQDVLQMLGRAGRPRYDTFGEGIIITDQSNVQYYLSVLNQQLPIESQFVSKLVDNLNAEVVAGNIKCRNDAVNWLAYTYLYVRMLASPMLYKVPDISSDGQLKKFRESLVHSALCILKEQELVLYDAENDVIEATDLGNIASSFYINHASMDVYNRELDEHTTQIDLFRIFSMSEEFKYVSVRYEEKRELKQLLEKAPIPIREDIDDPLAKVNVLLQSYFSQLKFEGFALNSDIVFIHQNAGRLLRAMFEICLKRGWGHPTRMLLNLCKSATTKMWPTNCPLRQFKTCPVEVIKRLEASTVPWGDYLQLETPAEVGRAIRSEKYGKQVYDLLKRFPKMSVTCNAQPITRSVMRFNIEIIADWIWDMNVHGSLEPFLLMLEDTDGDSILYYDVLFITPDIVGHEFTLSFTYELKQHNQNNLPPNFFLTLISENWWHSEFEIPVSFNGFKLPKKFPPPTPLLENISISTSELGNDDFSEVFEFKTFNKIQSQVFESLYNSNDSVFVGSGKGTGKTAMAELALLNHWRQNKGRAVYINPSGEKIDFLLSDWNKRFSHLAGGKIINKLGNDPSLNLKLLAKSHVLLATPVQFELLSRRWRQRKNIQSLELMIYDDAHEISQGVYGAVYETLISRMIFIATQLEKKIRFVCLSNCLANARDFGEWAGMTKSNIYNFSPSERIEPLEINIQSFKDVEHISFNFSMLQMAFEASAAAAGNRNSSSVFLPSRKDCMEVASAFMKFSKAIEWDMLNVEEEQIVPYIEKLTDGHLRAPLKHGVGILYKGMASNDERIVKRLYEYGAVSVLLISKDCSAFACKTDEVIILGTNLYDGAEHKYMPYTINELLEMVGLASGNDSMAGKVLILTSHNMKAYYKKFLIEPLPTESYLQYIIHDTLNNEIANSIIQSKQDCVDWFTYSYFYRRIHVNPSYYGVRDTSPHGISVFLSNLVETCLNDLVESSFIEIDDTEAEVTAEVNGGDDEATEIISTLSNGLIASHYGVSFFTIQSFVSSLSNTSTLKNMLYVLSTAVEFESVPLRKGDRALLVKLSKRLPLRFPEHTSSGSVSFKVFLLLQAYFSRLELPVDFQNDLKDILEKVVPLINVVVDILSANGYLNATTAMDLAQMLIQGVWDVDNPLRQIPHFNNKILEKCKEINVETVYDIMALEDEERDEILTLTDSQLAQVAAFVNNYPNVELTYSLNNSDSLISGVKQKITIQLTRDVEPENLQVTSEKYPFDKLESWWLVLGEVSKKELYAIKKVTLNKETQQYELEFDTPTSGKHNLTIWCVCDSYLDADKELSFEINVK

B1: C-terminal region of Prp8 (Prp8-CTR, residues 1822–2395) (domain or fragment)
chain: GLQIYQSSVQEPFLNSSNYAELFNNDIKLFVDDTNVYRVTVHKTFEGNVATKAINGCIFTLNPKTGHLFLKIIHTSVWAGQKRLSQLAKWKTAEEVSALVRSLPKEEQPKQIIVTRKAMLDPLEVHMLDFPNIAIRPTELRLPFSAAMSIDKLSDVVMKATEPQMVLFNIYDDWLDRISSYTAFSRLTLLLRALKTNEESAKMILLSDPTITIKSYHLWPSFTDEQWITIESQMRDLILTEYGRKYNVNISALTQTEIKDIILGQNIKAPSVKRQKMAELEAARSEKQNDEEAAGASTVMKTKTINAQGEEIVVVASADYESQTFSSKNEWRKSAIANTLLYLRLKNIYVSADDFVEEQNVYVLPKNLLKKFIEISDVKIQVAAFIYGMSAKDHPKVKEIKTVVLVPQLGHVGSVQISNIPDIGDLPDTEGLELLGWIHTQTEELKFMAASEVATHSKLFADKKRDCIDISIFSTPGSVSLSAYNLTDEGYQWGEENKDIMNVLSEGFEPTFSTHAQLLLSDRITGNFIIPSGNVWNYTFMGTAFNQEGDYNFKYGIPLEFYNEMHRPVHFLQF
binding result: binds
